In patent US20090240038A1 (Amgen, published 2009):

T1: Pep-3, NH2-LEEKKGNYVVTDHG-OH (human)
T1 construct: MW 1590 Da; free peptide of the Biacore and KinExA experiments
T1 peptide: H-LEEKKGNYVVTDHG-OH


Assays:
[1] = molecular target: T1, Pep-3, NH2-LEEKKGNYVVTDHG-OH; assay: pep3 KinExA
Method: All KinExA experiments were conducted at room temperature (˜23° C.). For all equilibrium experiments, antigen was serially diluted into solutions having a constant mAb binding site concentration. For the first 10 titration points the dilutions were 2-fold and the 11th and 12th serial dilutions were 10-fold. The sample flow rate for all experiments was 0.25 mL/min and the labeling antibody flow rate was 0.5 mL/min. […] A sample volume of 250 μL was analyzed for the antibody-controlled experiment. Two or three replicates of each sample were measured for all equilibrium experiments. The equilibrium titration data were fit in a dual curve analysis to a 1:1 binding model using KinExA software (Version 2.4, Sapidyne Instruments).

[2] = molecular target: T2, EGFRvIII-Rabbit Fc fusion protein (human; rabbit, UniProt P00533 298-645); assay: ELISA, minilipofection supernatant titrated 1:2 on EGFRvIII-Rab Ig Fc fusion protein
T2 construct: whole entry named; also called EGFRvIII-RbFc; EGFRvIII-Rab Ig Fc fusion protein; not shown: Hinge-CH2-CH3 domain of rabbit IgG
Method: The secretion ELISA tests were performed as follows. […] The plates were washed five times with dH₂O. Recombinant antibodies were titrated 1:2 for 7 wells from the undiluted minilipofection supernatant. The plates were washed five times with dH₂O. A goat anti-human IgG Fc-specific HRP-conjugated antibody was added at a final concentration of 1 μg/mL for 1 hour at RT for the secretion plates and binding plates detected with 1 μg/ml Rb anti Hu Fc for 1 hour at room temperature. The plates were washed five times with dH₂O. The plates were developed with the addition of TMB for 30 minutes and the ELISA was stopped by the addition of 1 M phosphoric acid. Each ELISA plate was analyzed to determine the optical density of each well at 450 nm.

[3] = molecular target: T3, EGFRvIII (type III deletion mutant of the epidermal growth factor receptor), expressed on cells (human, UniProt P00533 298-1210); assay: FACS titration on NR6 cells expressing EGFRvIII, PE fluorescence intensity (geo mean)
T3 construct: Also used for lysates of H1477 cells in Western blots; also called delta-EGFr; dEGFR

[4] = molecular target: T1, Pep-3, NH2-LEEKKGNYVVTDHG-OH; assay: logarithm of the measured Kd (Biacore, pep-3), listed beside simulated energies
[5] = molecular target: T3, EGFRvIII (type III deletion mutant of …); assay: FACS, NR6 M cells, 0.25 µg/ml mAb + Alexa anti-human IgG Fab, 37 C without glutathione
Method: XenoMax derived IgG1 recombinant antibodies were expressed, purified and quantitated as described previously. Antibodies were further assayed for their ability to internalize the EGFRvIII receptor in NR6 M cells. […] The cells were washed with cold 10% FCS in PBS and secondary antibody (SS Alexa antihuman IgG Fab) at 3 μg/ml Fab was added and incubated for 7 mins on ice. The cells were washed with cold 10% FCS in PBS once and then resuspended in cold media. Next, two sets of the triplicate were incubated at 37° C. and the remaining set was incubated at 4° C. for 1 hr. After that the cells incubated at 4° C. and one set of the cells incubated at 37° C. were treated with glutathione (as previously mentioned) for 1 hr on ice. Then the cells were washed and resuspended in 100 μl of cold 1% FCS in PBS and analyzed by FACS. The % internalization was calculated from the geometric mean obtained from the FACS analysis [(mean at 37° C. with glutathione—mean at 4° C. with glutathione)/(mean at 37° C. without glutathione—mean at 4° C. with glutathione)].

Binder	Ln(Kd) [4]	FACS geometric mean [5]	also measured
antibody 131 (antibody, human IgG1, V domains shown, XenoMax derived; variable regions cloned into human IgG1 and IgK expression vectors; also called SC131) VH: QVQLVESGGGVVQSGRSLRLSCAASGFTFRNYGMHWVRQAPGKGLEWVAVIWYDGSDKYYADSVRGRFTISRDNSKNTLYLQMNSLRAEDTAVYYCARDGYDILTGNPRDFDYWGQGTLVTVSS VL: DTVMTQTPLSSHVTLGQPASISCRSSQSLVHSDGNTYLSWLQQRPGQPPRLLIYRISRRFSGVPDRFSGSGAGTDFTLEISRVEAEDVGVYYCMQSTHVPRTFGQGTKVEIK			Kd [1]: 0.05 pM; titer (antigen binding) [2]: > 64 reciprocal dilution; EC50 (read off the curve) [3]: ~0.1 µg/mL
antibody 13.1.2 (antibody, human IgG1, V domains shown, Hybridoma derived fully human IgG1 kappa) VH: QVQLVESGGGVVQPGRSLRLSCAASGFTFSSYGMHWVRQAPGKGLEWVAVIWYDGSNKYYVDSVKGRFTISRDNSKNTLYLQMNSLRAEDTAVYYCARDGWQQLAPFDYWGQGTLVTVSS VL: not shown	-16.3	22.1	
13.1.2 variant L99H-9.2 (antibody, V domains shown, also called Leu99His; 99His) VH: QVQLVESGGGVVQPGRSLRLSCAASGFTFSSYGMHWVRQAPGKGLEWVAVIWYDGSNKYYVDSVKGRFTISRDNSKNTLYLQMNSLRAEDTAVYYCARDGWQQLAPFDYWGQGTLVTVSS VL: not shown	-14.7		
13.1.2 variant L99N-4.1 (antibody, V domains shown, also called Leu99Asn; 99Asn) VH: QVQLVESGGGVVQPGRSLRLSCAASGFTFSSYGMHWVRQAPGKGLEWVAVIWYDGSNKYYVDSVKGRFTISRDNSKNTLYLQMNSLRAEDTAVYYCARDGWQQLAPFDYWGQGTLVTVSS VL: not shown	-13.5		
13.1.2 variant L99T-5.3 (antibody, V domains shown, also called Leu99Thr; leu99Thr) VH: QVQLVESGGGVVQPGRSLRLSCAASGFTFSSYGMHWVRQAPGKGLEWVAVIWYDGSNKYYVDSVKGRFTISRDNSKNTLYLQMNSLRAEDTAVYYCARDGWQQLAPFDYWGQGTLVTVSS VL: not shown	-16.5		
13.1.2 variant L217N-2.1 (antibody, V domains shown, Position 217 of the joint numbering = residue 104 of the heavy chain variable region (heavy chain starts at 114); also called Leu217Asn; 217Asn) VH: QVQLVESGGGVVQPGRSLRLSCAASGFTFSSYGMHWVRQAPGKGLEWVAVIWYDGSNKYYVDSVKGRFTISRDNSKNTLYLQMNSLRAEDTAVYYCARDGWQQNAPFDYWGQGTLVTVSS VL: not shown	-15.5		
13.1.2 variant L217Q-10.1 (antibody, V domains shown, Position 217 of the joint numbering = residue 104 of the heavy chain variable region; also called Leu217Gln; 217Gln) VH: QVQLVESGGGVVQPGRSLRLSCAASGFTFSSYGMHWVRQAPGKGLEWVAVIWYDGSNKYYVDSVKGRFTISRDNSKNTLYLQMNSLRAEDTAVYYCARDGWQQQAPFDYWGQGTLVTVSS VL: not shown	-16.2		
13.1.2 variant N35G-3.1 (antibody, V domains shown, also called Asn35Gly; 35Gly) VH: QVQLVESGGGVVQPGRSLRLSCAASGFTFSSYGMHWVRQAPGKGLEWVAVIWYDGSNKYYVDSVKGRFTISRDNSKNTLYLQMNSLRAEDTAVYYCARDGWQQLAPFDYWGQGTLVTVSS VL: DIVMTQTPLSSPVTLGQPASISCRSSQSLVHSDGGTYLSWLHQRPGQPPRLLIYKISNRFSGVPDRFSGSGAGTAFTLKISRVEAEDVGVYYCMQATQLPRTFGQGTKVEIKR	-15.4		
13.1.2 variant Y172R-1.2 (antibody, V domains shown, Position 172 of the joint numbering = residue 59 of the heavy chain variable region; also called Tyr172Arg; 172Arg) VH: QVQLVESGGGVVQPGRSLRLSCAASGFTFSSYGMHWVRQAPGKGLEWVAVIWYDGSNKRYVDSVKGRFTISRDNSKNTLYLQMNSLRAEDTAVYYCARDGWQQLAPFDYWGQGTLVTVSS VL: not shown	-13.9		
antibody 095 (antibody, human IgG1, V domains shown, Recombinant human IgG1 kappa; also called mAb 095; SC95) VH: QVQLQESGPFLVKPSQTLSLTCTVSGGSISSGGYYWSWIRQHPGKGLEWIGFIYYRGNTYYNPSLKSRVTISVDTSKNQFSLKLSSVTAADTAVYYCARDGYCSRTGCYGGWFDPWGQGTLVTVSP VL: DIVMTQTPLSSPVTLGQPASISCRSSQSLIHTDGNIYLSWLQQRPGQPPRLLIYKISNRFSGVPDRFSGSGAGTDFTLKISRVEAEDVGVYYCMQGTQFPITFGQGTRLEIK		22.6	
antibody 139 (antibody, human IgG1, V domains shown, Recombinant human IgG1 kappa; also called SC139) VH: EVQVLESGGGLVQPGGSLRLSCAASGFTFSSYAMSWVRQAPGKGLEWVSAISGSGGSTNYADSVKGRFTISRDNSKNTLYLQMNSLRAEDTAVYYCAGSSGWSEYWGQGTLVTVSS VL: DIQMTQSPSSLSASVGDRVTITCRASQGIRNNLAWYQQKPGKAPKRLIYAASNLQSGVPSRFTGSGSGTEFTLIVSSLQPEDFATYYCLQHHSYPLTSGGGTKVEIK		22.6	
antibody 211 (antibody, human IgG1, V domains shown, Recombinant human IgG1 kappa; also called SC211; sc211) VH: QVQLVESGGGVVQPGRSLRLSCVASGFTLSSYGMHWVRQAPGKGLEWVAVTSYDGSKKDYADSAKGRFTISRDNSKNTLYLQMNSLRAEDTAVYYCVSEGYCSSSSCYKYYYYGMDVWGQGTTVTVSS VL: DIVMTQSPLSLPVTPGEPASISCRSSQSLLYRNGNNYLDWYLQRPGQSPQLLIYLGSNRASGVPDRFSGSGSGTDFTLKISRVEAEDVGVYYCMQALQTPRTFGQGTKVEIK		20.8	
antibody 250 (antibody, human IgG1, V domains shown, Recombinant human IgG1 kappa; also called SC250; sc250) VH: EGQLLESGGGWVQPGESLRLSCAASGFTFSSYAMSWVRQAPGKGLEWVSAISGSGGSTNYADSVKGRFTISRDNSKNTLYLQVNSLRVEDTAVYYCAGSSGWSEYWGQGTLVTVSS VL: DIQMTQSPSSLSASVGDSVTITCRTSQGIRKNLGWYQQKPGKAPKRLIYAASSLQSGVPSRFSGSGSGTEFTLTISRLQPEDFATYYCLQHHSYPLTFGGGTRVEIR		24.1	
